Data published in PMC9352680, “A comprehensive thermodynamic model for RNA binding by the Saccharomyces cerevisiae Pumilio protein PUF4”.

T1: PUF4 RNA-binding domain (Saccharomyces cerevisiae, UniProt P25339 537-888)
T1 sequence: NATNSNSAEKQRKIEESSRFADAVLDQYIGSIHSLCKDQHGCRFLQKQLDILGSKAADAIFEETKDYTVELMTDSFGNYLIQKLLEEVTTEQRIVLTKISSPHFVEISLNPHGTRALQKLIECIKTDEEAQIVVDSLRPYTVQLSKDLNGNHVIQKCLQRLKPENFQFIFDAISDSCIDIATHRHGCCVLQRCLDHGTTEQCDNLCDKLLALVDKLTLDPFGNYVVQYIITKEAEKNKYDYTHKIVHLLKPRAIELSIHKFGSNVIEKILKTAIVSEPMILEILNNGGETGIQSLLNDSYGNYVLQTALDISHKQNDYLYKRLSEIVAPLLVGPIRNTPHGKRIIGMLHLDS


Molecular target: T1, PUF4 RNA-binding domain
Test: Mg; RNA-MaP; 20 mM Na-HEPES pH 7.4, 30 mM KOAc, 0.75 mM MgCl2, 0.1% Tween-20, 5% glycerol, 0.1 mg/mL BSA, 2 mM DTT; 25 C; 0.0125-409.6 nM protein
Conditions: tags: N-His6-TEV cleaved; C-SNAP kept, Cy3B-labelled; label: tethered on chip by stalled RNA polymerase

| Binder | Kd [nM] |
| --- | --- |
| ACAAACUGAAUUAUAAACAAAC (ssRNA) [Ib_S3_P5E.1_K5.1_C5.1_H5.1_[T3A]_A5.1_F5.1_[T9A]_T5.1] | > 2300 |
| ACAAACUCUAUAAUUAACAAAC (ssRNA) [Ib_S3_P5E.1_K5.1_C5.1_H5.1_[G2C]_A5.1_[T6A]_F5.1_T5.1] | > 2300 |
| ACAAACCGUAUAAUUAACAAAC (ssRNA) [Ib_S3_P5E.1_K5.1_C5.1_H5.1_[T1C]_A5.1_[T6A]_F5.1_T5.1] | 1180 |
| ACAAACAUUAUAUUAACAAAC (ssRNA) [Ib_S3_P4E.1_K4.1_C4.1_H4.1_[T1A]_[G2T]_A4.1_F4.1_T4.1] | > 2300 |
| ACAAACUUUAUCAUUAACAAAC (ssRNA) [Ib_S3_P5E.1_K5.1_C5.1_H5.1_[G2T]_A5.1_[T6C]_F5.1_T5.1] | > 2300 |
| ACAAACUGGAUUACUAACAAAC (ssRNA) [Ib_S3_P5E.1_K5.1_C5.1_H5.1_[T3G]_A5.1_F5.1_[T8C]_T5.1] | > 2300 |
| Ib_S4_P3E.1_K3.1_C3.1_H3.1_A3.1_F3.1_[T7G]_[A8C]_T3.1 (ssRNA) RNA: UUUGACAACUGAUCGUUCUUUCUUGUAUAGCUUCUUUCUCGAUCAGUUGUCUUU | 85.3 |
| Ib_S4_P3E.1_K3.1_C3.1_H3.1_A3.1_F3.1_[T7C]_[A8C]_T3.1 (ssRNA) RNA: UUUGACAACUGAUCGUUCUUUCUUGUAUACCUUCUUUCUCGAUCAGUUGUCUUU | 28.9 |
| Ib_S4_P3E.1_K3.1_C3.1_H3.1_A3.1_F3.1_[T7C]_[A8G]_T3.1 (ssRNA) RNA: UUUGACAACUGAUCGUUCUUUCUUGUAUACGUUCUUUCUCGAUCAGUUGUCUUU | 60.4 |
| ACAAACCCUAUUAUUAACAAAC (ssRNA) [Ib_S3_P5E.1_K5.1_C5.1_H5.1_[T1C]_[G2C]_A5.1_F5.1_T5.1] | > 2300 |
| UCUCUUUGUAUACAUCUCUU (ssRNA) [Ia_S1_P3E.1_K3.1_C3.1_H3.1_A3.1_F3.1_[T7C]_T3.1] | 44.6 |
| ACAAACUGCAUAAUAACAAAC (ssRNA) [Ib_S3_P4E.1_K4.1_C4.1_H4.1_[T3C]_A4.1_[T7A]_F4.1_T4.1] | 1450 |
| ACAAACUAUAUUAUUUACAAAC (ssRNA) [Ib_S3_P5E.1_K5.1_C5.1_H5.1_[G2A]_A5.1_F5.1_[A10T]_T5.1] | 994 |
| ACAAACUGUCCUAUUAACAAAC (ssRNA) [Ib_S3_P5E.1_K5.1_C5.1_H5.1_[A4C]_A5.1_[T5C]_F5.1_T5.1] | 545 |
| ACAAACUGCAUUACUAACAAAC (ssRNA) [Ib_S3_P5E.1_K5.1_C5.1_H5.1_[T3C]_A5.1_F5.1_[T8C]_T5.1] | > 2300 |
| ACAAACUAUUUUAUUAACAAAC (ssRNA) [Ib_S3_P5E.1_K5.1_C5.1_H5.1_[G2A]_[A4T]_A5.1_F5.1_T5.1] | > 2300 |
| ACAAACGGUAUCAUUAACAAAC (ssRNA) [Ib_S3_P5E.1_K5.1_C5.1_H5.1_[T1G]_A5.1_[T6C]_F5.1_T5.1] | 1450 |
| ACAAACUCUAUAGUAACAAAC (ssRNA) [Ib_S3_P4E.1_K4.1_C4.1_H4.1_[G2C]_A4.1_[T7G]_F4.1_T4.1] | > 2300 |
| ACAAACUGUCUUACUAACAAAC (ssRNA) [Ib_S3_P5E.1_K5.1_C5.1_H5.1_[A4C]_A5.1_F5.1_[T8C]_T5.1] | 1030 |
| ACAAACAGGAUUAUUAACAAAC (ssRNA) [Ib_S3_P5E.1_K5.1_C5.1_H5.1_[T1A]_[T3G]_A5.1_F5.1_T5.1] | > 2300 |

| Binder | Kd [nM] |
| --- | --- |
| ACAAACUGAAUACUAACAAAC (ssRNA) [Ib_S3_P4E.1_K4.1_C4.1_H4.1_[T3A]_A4.1_[T7C]_F4.1_T4.1] | 1130 |
| ACAAACCGUAUUUUUAACAAAC (ssRNA) [Ib_S3_P5E.1_K5.1_C5.1_H5.1_[T1C]_A5.1_[A7T]_F5.1_T5.1] | > 2300 |
| ACAAACUGUCUUCUUAACAAAC (ssRNA) [Ib_S3_P5E.1_K5.1_C5.1_H5.1_[A4C]_A5.1_[A7C]_F5.1_T5.1] | 2190 |
| ACAAACAGUCUUAUUAACAAAC (ssRNA) [Ib_S3_P5E.1_K5.1_C5.1_H5.1_[T1A]_[A4C]_A5.1_F5.1_T5.1] | > 2300 |
| UCUCUUUAUAUAUAUCUCUU (ssRNA) [Ia_S1_P3E.1_K3.1_C3.1_H3.1_[G2A]_A3.1_F3.1_T3.1] | 637 |
| ACAAACCGUAUUUUAACAAAC (ssRNA) [Ib_S3_P4E.1_K4.1_C4.1_H4.1_[T1C]_A4.1_[A6T]_F4.1_T4.1] | 1400 |
| ACAAACGGUAUUUUUAACAAAC (ssRNA) [Ib_S3_P5E.1_K5.1_C5.1_H5.1_[T1G]_A5.1_[A7T]_F5.1_T5.1] | 1600 |
| ACAAACUGAACUAUUAACAAAC (ssRNA) [Ib_S3_P5E.1_K5.1_C5.1_H5.1_[T3A]_A5.1_[T5C]_F5.1_T5.1] | > 2300 |
| ACAAACUCCAUAUUAACAAAC (ssRNA) [Ib_S3_P4E.1_K4.1_C4.1_H4.1_[G2C]_[T3C]_A4.1_F4.1_T4.1] | > 2300 |
| ACAAACUGCAUUUUAACAAAC (ssRNA) [Ib_S3_P4E.1_K4.1_C4.1_H4.1_[T3C]_A4.1_[A6T]_F4.1_T4.1] | 1910 |
| ACAAACUGGAUUAUGAACAAAC (ssRNA) [Ib_S3_P5E.1_K5.1_C5.1_H5.1_[T3G]_A5.1_F5.1_[T9G]_T5.1] | > 2300 |
| ACAAACUUUAUUAUUUACAAAC (ssRNA) [Ib_S3_P5E.1_K5.1_C5.1_H5.1_[G2T]_A5.1_F5.1_[A10T]_T5.1] | > 2300 |
| ACAAACUGACUUAUUAACAAAC (ssRNA) [Ib_S3_P5E.1_K5.1_C5.1_H5.1_[T3A]_[A4C]_A5.1_F5.1_T5.1] | > 2300 |
| ACAAACAGUAGAUUAACAAAC (ssRNA) [Ib_S3_P4E.1_K4.1_C4.1_H4.1_[T1A]_A4.1_[T5G]_F4.1_T4.1] | 828 |
| ACAAACCGUAUUAUUCACAAAC (ssRNA) [Ib_S3_P5E.1_K5.1_C5.1_H5.1_[T1C]_A5.1_F5.1_[A10C]_T5.1] | > 2300 |
| Ia_S2_P5E.1_K5.1_C5.1_H5.1_A5.1_[T5A]_F5.1_T5.1 (ssRNA) RNA: UUUGAUUAAUAUGAUAUCGUUCUUUCUUGUAAUAUUAUUCUUUCUCGAUAUCAUAUUAAUCUUU | 4.27 |
| Ia_S2_P5E.1_K5.1_C5.1_H5.1_A5.1_[A7T]_F5.1_T5.1 (ssRNA) RNA: UUUGAUUAAUAUGAUAUCGUUCUUUCUUGUAUUUUUAUUCUUUCUCGAUAUCAUAUUAAUCUUU | 2.11 |
| Ia_S2_P5E.1_K5.1_C5.1_H5.1_A5.1_[A7C]_F5.1_T5.1 (ssRNA) RNA: UUUGAUUAAUAUGAUAUCGUUCUUUCUUGUAUUCUUAUUCUUUCUCGAUAUCAUAUUAAUCUUU | 3.06 |
| Ia_S2_P5E.1_K5.1_C5.1_H5.1_A5.1_[A7G]_F5.1_T5.1 (ssRNA) RNA: UUUGAUUAAUAUGAUAUCGUUCUUUCUUGUAUUGUUAUUCUUUCUCGAUAUCAUAUUAAUCUUU | 11.6 |
| Ia_S2_P5E.1_K5.1_C5.1_H5.1_A5.1_[T6C]_F5.1_T5.1 (ssRNA) RNA: UUUGAUUAAUAUGAUAUCGUUCUUUCUUGUAUCAUUAUUCUUUCUCGAUAUCAUAUUAAUCUUU | 1.73 |

| Binder | Kd [nM] |
| --- | --- |
| Ia_S2_P5E.1_K5.1_C5.1_H5.1_A5.1_[T6A]_F5.1_T5.1 (ssRNA) RNA: UUUGAUUAAUAUGAUAUCGUUCUUUCUUGUAUAAUUAUUCUUUCUCGAUAUCAUAUUAAUCUUU | 2.33 |
| ACAAACAGUAUCAUUAACAAAC (ssRNA) [Ib_S3_P5E.1_K5.1_C5.1_H5.1_[T1A]_A5.1_[T6C]_F5.1_T5.1] | > 2300 |
| ACAAACCUUAUUAUUAACAAAC (ssRNA) [Ib_S3_P5E.1_K5.1_C5.1_H5.1_[T1C]_[G2T]_A5.1_F5.1_T5.1] | > 2300 |
| ACAAACUGGAUUAAUAACAAAC (ssRNA) [Ib_S3_P5E.1_K5.1_C5.1_H5.1_[T3G]_A5.1_F5.1_[T8A]_T5.1] | > 2300 |
| ACAAACUCCAUUAUUAACAAAC (ssRNA) [Ib_S3_P5E.1_K5.1_C5.1_H5.1_[G2C]_[T3C]_A5.1_F5.1_T5.1] | > 2300 |
| ACAAACCGUAGAUUAACAAAC (ssRNA) [Ib_S3_P4E.1_K4.1_C4.1_H4.1_[T1C]_A4.1_[T5G]_F4.1_T4.1] | 455 |
| ACAAACGGUCUUAUUAACAAAC (ssRNA) [Ib_S3_P5E.1_K5.1_C5.1_H5.1_[T1G]_[A4C]_A5.1_F5.1_T5.1] | > 2300 |
| ACAAACUGUCUUAUUUACAAAC (ssRNA) [Ib_S3_P5E.1_K5.1_C5.1_H5.1_[A4C]_A5.1_F5.1_[A10T]_T5.1] | 641 |
| ACAAACUAUAUUAAUAACAAAC (ssRNA) [Ib_S3_P5E.1_K5.1_C5.1_H5.1_[G2A]_A5.1_F5.1_[T8A]_T5.1] | 1580 |
| ACAAACUGGACUAUUAACAAAC (ssRNA) [Ib_S3_P5E.1_K5.1_C5.1_H5.1_[T3G]_A5.1_[T5C]_F5.1_T5.1] | > 2300 |
| ACAAACUAUUUAUUAACAAAC (ssRNA) [Ib_S3_P4E.1_K4.1_C4.1_H4.1_[G2A]_[A4T]_A4.1_F4.1_T4.1] | > 2300 |
| ACAAACAGUAUCUUAACAAAC (ssRNA) [Ib_S3_P4E.1_K4.1_C4.1_H4.1_[T1A]_A4.1_[A6C]_F4.1_T4.1] | > 2300 |
| ACAAACAGUAUAAUUAACAAAC (ssRNA) [Ib_S3_P5E.1_K5.1_C5.1_H5.1_[T1A]_A5.1_[T6A]_F5.1_T5.1] | 1740 |
| ACAAACUAAAUUAUUAACAAAC (ssRNA) [Ib_S3_P5E.1_K5.1_C5.1_H5.1_[G2A]_[T3A]_A5.1_F5.1_T5.1] | > 2300 |
| ACAAACAGUAAAUUAACAAAC (ssRNA) [Ib_S3_P4E.1_K4.1_C4.1_H4.1_[T1A]_A4.1_[T5A]_F4.1_T4.1] | 596 |
| ACAAACAGUAUUUUUAACAAAC (ssRNA) [Ib_S3_P5E.1_K5.1_C5.1_H5.1_[T1A]_A5.1_[A7T]_F5.1_T5.1] | > 2300 |
| ACAAACUAUAGUAUUAACAAAC (ssRNA) [Ib_S3_P5E.1_K5.1_C5.1_H5.1_[G2A]_A5.1_[T5G]_F5.1_T5.1] | > 2300 |
| ACAAACUUUAAUAUUAACAAAC (ssRNA) [Ib_S3_P5E.1_K5.1_C5.1_H5.1_[G2T]_A5.1_[T5A]_F5.1_T5.1] | > 2300 |
| ACAAACUAUAUAAUUAACAAAC (ssRNA) [Ib_S3_P5E.1_K5.1_C5.1_H5.1_[G2A]_A5.1_[T6A]_F5.1_T5.1] | 1050 |
| ACAAACUGAAUAAUAACAAAC (ssRNA) [Ib_S3_P4E.1_K4.1_C4.1_H4.1_[T3A]_A4.1_[T7A]_F4.1_T4.1] | > 2300 |
